# Reference: the DeepSol protein solubility set
# Experiment: soluble on expression in E. coli; label from the status in PepcDB or PDB records
row,Sequence,soluble on expression in E. coli
1,PRNSKNDGVDTAIYHHKLRDQVLKALYDVLAKESEHPPQSILHTAKAIESEMNKVNNCDTNEAAYKARYRIIYSNVISKNNPDLKHKIANGDITPEFLATCDAKDLAPAPLKQKIEEIAKQNLYNAQGATIERSVTDRFTCGKCKEKKVSYYQLQTRSADEPLTTFCTCEACGNRWKFS,soluble
2,PSDTVTLFMSGDGGWRDLDKVVAGDMAKMGYPVVGIDVLRYYWEHKTPEQTAADLTDLMNHYRQKWGTKRFILAGYSFGADVMPAIYNRLAADDQNRVDAIILLAFAR,not soluble
3,PSQDPRTPGGSEWRETGPQFRCLPPVPADMVFLVDGSWSIGHSHFQQVKDFLASVIAPFEIGPDKVQVGLTQYSGDAQTEWDLNSLSTKEQVLAAVRRLRYKGGNTFTGLALTHVLGQNLQPAAGLRPEAAKVVILVTDGKSQDDVHTAARVLKDLGVNVFAVGVKNADEAELRLLASPPRDITVHSVLDFLQLGALAGLLSRLICQRLQGGSPRQGPAAAPALDTLPAPTSLVLSQVTSSSIRLSWTPAPRHPLKYLIVWRASRGGTPREVVVEGPAASTELHNLASRTEYLVSVFPIYEGGVGEGLRGLVTTAPLPPPRALTLAAVTPRTVHLTWQPSAGATHYLVRCSPASPKGEEEEREVQVGRPEVLLDGLEPGRDYEVSVQSLRGPEGSEARGIRARTPTLAPPRHLGFSDVSHDAARVFWEGAPRPVRLVRVTYVSSEGGHSGQTEAPGNATSAMLGPLSSSTTYTVRVTCLYPGGGSSTLTGRVTTKKAPSPSQLSMTELPGDAVQLAWVAAAPSGVLVYQITWTPLGEGKAHEISVPGNLGTAVLPGLGRHTEYDVTILAYYRDGARSDPVSLRYTPSTVSRSPPSNLALASETPDSLQVSWTPPLGRVLHYWLTYAPASGLGPEKSVSVPGARSHVTLPDLQAATKYRVLVSAIYAAGRSEAVSATGQTACPALRPDGSLPGFDLMVAFSLVEKAYASIRGVAMEPSAFGGTPTFTLFKDAQLTRRVSDVYPAPLPPEHTIVFLVRLLPETPREAFALWQMTAEDFQPLLGVLLDGDVGPASPPAVRRSRGREAPEPWEAFRGSPASRPGPQHPLGGRQVSRAGGCGPH,soluble
4,PVNQKSKRSELSQRRIRRPFSVAEVEALVEAVEHLGTGRWRDVKMRAFDNADHRTYVDLKDKWKTLVHTASIAPQQRRGEPVPQDLLDRVLAAHAYWSQQQGKQHVEPLKILDAKAQKVGA,soluble
5,PVSGTPSGITELDNVTTGGQPGELIIIAARPAMGKTTFAQLVAQSTLNKYPDASIQFYSQEMPADQLVQRFMSMRSRISLQSIRQATELTELAWSKIAEAMGYIMNNWKDRLLIDDEPSLPPYRLRTKVRRNTRLYGKPKAIIIDYIQLMRSTGKFENRNLELAEISSELKKLAKETGCPVYALSQLNRSLEQRANKRPVNSDL,not soluble
6,QEGTLERSDWRKFFSEFQAKGTIVVADERQADRAMLVFDPVRSKKRYSPASTFKIPHTLFALDAGAVRDEFQIFRWDGVNRGFAGHNQDQDLRSAMRNSTVWVYELFAKEIGDDKARRYLKKIDYGNADPSTSNGDYWIEGSLAISAQEQIAFLRKLYRNELPFRVEHQRLVKDLMIVEAGRNWILRAKTGWEGRMGWWVGWVEWPTGSVFFALNIDTPNRMDDLFKREAIVRAILRSIEALPPNPAVNSDAAR,soluble
7,QESSGNKIHFINVQEGGSDAIILESNGHFAMVDTGEDYDFPDGSDSRYPWREGIETSYKHVLTDRVFRRLKELSVQKLDFILVTHTHSDHIGNVDELLSTYPVDRVYLKKYSDSRITNSERLWDNLYGYDKVLQTATETGVSVIQNITQGDAHFQFGDMDIQLYNYENETDSSGELKKIWDDNSNSLISVVKVNGKKIYLGGDLDNVHGAEDKYGPLIGKVDLMKFNHHHDTNKSNTKDFIKNLSPSLIVQTSDSLPWKNGVDSEYVNWLKERGIERINAASKDYDATVFDIRKDGFVNISTSYKPIPSFQAGWHKSAYGNWWYQAPDSTGEYAVGWNEIEGEWYYFNQTGILLQNQWKKWNNHWFYLTDSGASAKNWKKIDGIWYYFNKENQMEIGWVQDKEQWYYLDVDGSMKTGWLQYMGQWYYFAPSGEMKMGWVKDKETWYYMDSTGVMKTGEIEVAGQHYYLEDSGAMKQGWHKKANDWYFYKTDGSRAVGWIKDKDKWYFLKENGQLLVNGKTPEGYTVDSSGAWLVDVSIEKSATIKTT,soluble
8,QFDPSIVLTEVAMLLEKADINEEVERTKSHLKQFYGIILLEEPIGRKLDFLIQEMNREINTIGSKASSLKITEQVVEMKTTLEKIREQVQNVE,not soluble
9,QGHMPSDSKKPTIIYPCLWDYRVIMTTKDTSTLKELLETYQRPFKLEFKNTSKNAKFYSFNVSMEVSNESERNEIFQKISQLDKVVQTLGS,soluble
10,QGKPREAAQHLEAEASRASGAQRNQLLADAAFAWHEAGDTARAQVLVRQVSVQQLTGESKARFVLLLGELALANRQPVRAFQYFGESSSGLSKKLQIRWLLGRAAALEANGDAFGAAQQRARADQALLGKARNENQAAITRLLAGLDHEVLLTRTAALPVGDPLYHFVGRVLLSRGEALPQPLEGSVQGSVGSSQRPSADTDGYRPPLKLAVLLPLTGSLATAAAPVRDGFLAGYYAETRRRPDLDFFDTGSTPVGAKAAYAKAIAAGADFVVGPLGRDEVSALFSQGQLSIPLLALNRSTGDRVSLPSGSASFSLAPEDDGVIAADYLLAQGQRNVIVIGSNDDVGRRGVQAFMDRFRARGGQVLAALGVADVPGDLGPRLRGADRADAVFLAVRGPTARVLAPQLASLGLSSKPQVGTSQLVLGTGKPEEDTLLDGIVYPTEPWSVQGVKSIPSAADVAVRLPNMRGAALRLFAFGVDAWKLSVYLEGLSAGGAGGGLRGATGTLRLDDSGNVIRIPIWATFRNGQSIPVEML,not soluble
11,QITLKESGPGIVQPSQPFRLTCTFSGFSLSTSGIGVTWIRQPSGKGLEWLATIWWDDDNRYNPSLKSRLTVSKDTSNNQAFLNMMTVETADTAIYYCAQSAITSVTDSAMDHWGQGTSVTVSSAKTTPPSVYPLAPGSAAQTNSMVTLGCLVKGYFPEPVTVTWNSGSLSSGVHTFPAVLQSDLYTLSSSVTVPSSTWPSETVTCNVAHPASSTKVDKKIVPADC,soluble
12,QLGMKGYADTIDRQRMQTQAQFVLEKMSREIRHAVPNSFHVPTGSTNCLEFMPIEYSGFYTLTNNNLEFLLGNDSTLNPIPADRWMVINPSRYEDLQSASPQSLAVGNLAKTGD,not soluble
13,QLKDKFDGRPTKPPPNSYSLYCAELMANMKDVPSTERMVLCSQQWKLLSQKEKDAYHKKCDQKKKDYEVELLRFLESLPEEEQQRVLGEEKMLNI,soluble
14,QPKPEVPQCVADWIEECKEEDLTLKGLFSNSDMPAKIFDWIFGSDENCRLMAEAWINGYTVEKEKLYTVDLPNGQPLVRGINTLYFSQNLATENVKLTESEIRKDFEWAWQFAEEVTE,not soluble
15,QPPQFKLDPRLARLLGIHTQTRPVIIQALWQYIKTHKLQDPHEREFVLCDKYLQQIFESQRMKFSEIPQRLHALLMPPEP,soluble
16,QPSPPQRPNRCTVCRKRVGLTGFMCRCGTTFCGSHRYPEVHGCTFDFKSAG,soluble
17,QQKILENIRGIGTNTMTIFNGNGFGDRRSRHIQNLKISDANTLSKQSYIQSVTPNTSSSGILVVGNKSFTSANLYGIGEQYFDVEGLKLKQGRLLTEDDVDQSNQVVVLDESAKKAIFANENPLGKTVIFNKRPFRVIGVVSDQQLGGFPGNSLNLYSPYSTVLNKITGGSRIGSITVKISDDVNSTVAEKSLTELLKSLHGKKDFFIMNSDTIKQTIENTTGTMK,soluble
18,QRLKVEDALSYLDQVKLQFGSQPQVYNDFLDIMKEFKSQSIDTPGVISRVSQLFKGHPDLIMGFNTFLPPG,soluble
19,QSATARPMAIALGVAEPAPRGFLLIGANRVAREIGQALARYDRRVLMTDSNWEYISQVRMMGLDYYYGNPISSHADDNLNMIGIGQVVALTPDQHFNIMACMQFVDEFGEDKVHCLQKVKTNGNGSEKHSVAQEYHGKLLMGGNVSYTQLASLLSRGAEIKHTKLSENFTYQDYLEHHKTNLVIPLFNVEDKGKIQFCDDPDQFAPSTTSTIVSLILPESAQ,not soluble
20,QSIVVDMREFRSELPSLIHRRGIDIEPVTLEVGDYILTPEMCVERKSISDLIGSLNNGRLYSQCISMSRYYKRPVLLIEFD,not soluble
